Measured values from patent publication US20210253718A1 (MODMAB THERAPEUTICS, published 2021).
Each block holds one binder with its values, some of them ahead of it.

Tests used:
[1] = target: T1, FZD1 cysteine-rich domain (CRD), MYC-tagged and GPI-anchored on CHO cells (human); assay: flow cytometry, CHO-CRD cells;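 further: flow cytometry of Fab binding to CHO cells overexpressing a Frizzled CRD, with binding defined as median fluorescence over twice that of CHO cells lacking any Frizzled CRD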
[2] = target: T2, FZD2 cysteine-rich domain (CRD), MYC-tagged and GPI-anchored on CHO cells (human, UniProt Q14332 35-161); assay: flow cytometry, CHO-CRD cells;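 further: flow cytometry of Fab binding to CHO cells overexpressing a Frizzled CRD, with binding defined as median fluorescence over twice that of CHO cells lacking any Frizzled CRD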
[3] = target: T3, FZD3 cysteine-rich domain (CRD), MYC-tagged and GPI-anchored on CHO cells (human, UniProt Q9NPG1 24-150, GPI anchor); assay: flow cytometry, CHO-CRD cells;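 further: flow cytometry of Fab binding to CHO cells overexpressing a Frizzled CRD, with binding defined as median fluorescence over twice that of CHO cells lacking any Frizzled CRD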
T3 construct: domain: cysteine-rich domain (CRD); also called FZD3 CRD; CHO-myc-FZDGPI; not shown: MYC tag and GPI anchor signal
T3 sequence (looked up): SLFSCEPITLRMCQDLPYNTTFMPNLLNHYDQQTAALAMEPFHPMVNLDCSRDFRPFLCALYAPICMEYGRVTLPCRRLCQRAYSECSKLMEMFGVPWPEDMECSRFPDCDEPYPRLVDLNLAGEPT

[4] = target: T4, FZD4 cysteine-rich domain (CRD), MYC-tagged and GPI-anchored on CHO cells (human, UniProt Q9ULV1 42-167, GPI anchor); assay: flow cytometry, CHO-CRD cells;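 further: flow cytometry of Fab binding to CHO cells overexpressing a Frizzled CRD, with binding defined as median fluorescence over twice that of CHO cells lacking any Frizzled CRD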
T4 construct: also called FZD4 CRD; CHO-myc-FZDGPI; not shown: MYC tag and GPI anchor signal
T4 sequence: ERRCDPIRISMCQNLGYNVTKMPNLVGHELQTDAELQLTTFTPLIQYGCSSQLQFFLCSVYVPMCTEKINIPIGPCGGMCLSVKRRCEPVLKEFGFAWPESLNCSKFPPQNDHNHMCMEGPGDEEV

[5] = target: T5, FZD5 cysteine-rich domain (CRD), MYC-tagged and GPI-anchored on CHO cells (human, UniProt Q13467 29-156, GPI anchor); assay: flow cytometry, CHO-CRD cells
T5 construct: also called FZD5 CRD; CHO-myc-FZDGPI; not shown: MYC tag and GPI anchor signal
T5 sequence: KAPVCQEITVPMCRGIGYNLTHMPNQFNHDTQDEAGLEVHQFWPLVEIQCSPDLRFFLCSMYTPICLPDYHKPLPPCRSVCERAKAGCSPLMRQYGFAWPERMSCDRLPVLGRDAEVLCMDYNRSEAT

[6] = target: T6, FZD6 cysteine-rich domain (CRD), MYC-tagged and GPI-anchored on CHO cells (human, UniProt O60353 20-146, GPI anchor); assay: flow cytometry, CHO-CRD cells
T6 construct: also called FZD6 CRD; CHO-myc-FZDGPI; not shown: MYC tag and GPI anchor signal
T6 sequence: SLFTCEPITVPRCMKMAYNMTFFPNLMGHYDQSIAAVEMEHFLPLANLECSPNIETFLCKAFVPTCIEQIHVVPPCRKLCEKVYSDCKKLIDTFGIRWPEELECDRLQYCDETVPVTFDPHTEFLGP

[7] = target: T7, FZD7 cysteine-rich domain (CRD), MYC-tagged and GPI-anchored on CHO cells (human, UniProt O75084 45-169); assay: flow cytometry, CHO-CRD cells
[8] = target: T8, FZD8 cysteine-rich domain (CRD), MYC-tagged and GPI-anchored on CHO cells (human, UniProt Q498S8 31-155 (rat entry), GPI anchor); assay: flow cytometry, CHO-CRD cells
T8 construct: also called FZD8 CRD; CHO-myc-FZDGPI; not shown: MYC tag and GPI anchor signal
T8 sequence: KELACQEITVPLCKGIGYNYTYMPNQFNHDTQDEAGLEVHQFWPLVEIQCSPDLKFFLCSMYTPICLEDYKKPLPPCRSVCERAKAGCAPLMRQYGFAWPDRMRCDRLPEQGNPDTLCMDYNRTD

[9] = target: T9, FZD9 cysteine-rich domain (CRD), MYC-tagged and GPI-anchored on CHO cells (human, UniProt O00144 35-161, GPI anchor); assay: flow cytometry, CHO-CRD cells
T9 construct: also called FZD9 CRD; CHO-myc-FZDGPI; not shown: MYC tag and GPI anchor signal
T9 sequence: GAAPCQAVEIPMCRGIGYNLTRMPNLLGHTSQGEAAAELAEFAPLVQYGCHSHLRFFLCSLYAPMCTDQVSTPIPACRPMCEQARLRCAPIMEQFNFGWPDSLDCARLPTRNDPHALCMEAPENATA

[10] = target: T10, FZD10 cysteine-rich domain (CRD), MYC-tagged and GPI-anchored on CHO cells (human, UniProt Q9ULW2 30-156, GPI anchor); assay: flow cytometry, CHO-CRD cells
T10 construct: also called FZD10 CRD; CHO-myc-FZDGPI; not shown: MYC tag and GPI anchor signal
T10 sequence: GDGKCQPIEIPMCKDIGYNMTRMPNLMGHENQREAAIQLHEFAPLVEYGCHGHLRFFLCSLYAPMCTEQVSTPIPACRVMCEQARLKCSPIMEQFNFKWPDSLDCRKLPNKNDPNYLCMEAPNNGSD

[11] = target: T1, FZD1 cysteine-rich domain (CRD), …; assay: immunofluorescence, CHO-CRD cells
[12] = target: T2, FZD2 cysteine-rich domain (CRD), …; assay: immunofluorescence, CHO-CRD cells
[13] = target: T3, FZD3 cysteine-rich domain (CRD), …; assay: immunofluorescence, CHO-CRD cells
[14] = target: T4, FZD4 cysteine-rich domain (CRD), …; assay: immunofluorescence, CHO-CRD cells
[15] = target: T6, FZD6 cysteine-rich domain (CRD), …; assay: immunofluorescence, CHO-CRD cells
[16] = target: T7, FZD7 cysteine-rich domain (CRD), …; assay: immunofluorescence, CHO-CRD cells
[17] = target: T9, FZD9 cysteine-rich domain (CRD), …; assay: immunofluorescence, CHO-CRD cells
[18] = target: T10, FZD10 cysteine-rich domain (CRD), …; assay: immunofluorescence, CHO-CRD cells
[19] = target: T11, FZD1-Fc (UniProt Q9UP38 73-250, limits assumed); assay: SPR, Frizzled-Fc chimera;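 further: binding targets are Fc fusions carrying an extracellular Frizzled fragment that contains the CRD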
T11 construct: extracellular domain; also called Frizzled-Fc chimera (FZD1); not shown: Fc part

[20] = target: T12, FZD2-Fc (UniProt Q14332 24-190, limits assumed); assay: SPR, Frizzled-Fc chimera;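 further: binding targets are Fc fusions carrying an extracellular Frizzled fragment that contains the CRD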
T12 construct: extracellular domain; also called Frizzled-Fc chimera (FZD2); not shown: Fc part

[21] = target: T13, recombinant human FZD5-Fc chimera (R&D Systems, Catalog no. 1617-FZ) (human, UniProt Q13467 27-167); assay: SPR, Frizzled-Fc chimera;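 further: binding targets are Fc fusions carrying an extracellular Frizzled fragment that contains the CRD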
T13 construct: used for selection and ELISA; Fc part of the bought chimera not given
T13 sequence: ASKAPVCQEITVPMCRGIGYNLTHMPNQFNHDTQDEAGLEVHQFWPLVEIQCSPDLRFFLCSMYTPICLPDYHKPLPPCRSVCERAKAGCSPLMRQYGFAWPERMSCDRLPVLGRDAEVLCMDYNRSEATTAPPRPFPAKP

[22] = target: FZD7-Fc (UniProt O75084 33-185); assay: SPR, Frizzled-Fc chimera;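 further: binding targets are Fc fusions carrying an extracellular Frizzled fragment that contains the CRD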
[23] = target: T14, FZD8-Fc (UniProt Q9H461 28-158, limits assumed); assay: SPR, Frizzled-Fc chimera
T14 construct: extracellular domain; also called Frizzled-Fc chimera (FZD8); not shown: Fc part
T14 sequence (looked up): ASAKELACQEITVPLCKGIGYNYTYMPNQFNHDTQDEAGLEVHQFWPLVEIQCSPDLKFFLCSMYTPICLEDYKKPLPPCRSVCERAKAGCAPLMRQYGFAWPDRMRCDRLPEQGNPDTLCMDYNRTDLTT

[24] = target: T3, FZD3 cysteine-rich domain (CRD), …; assay: flow cytometry on CHO-GPI cells over-expressing the Frizzled CRD;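 further: binding of recombinant anti-Frizzled Fabs to the cells, read as fold mean fluorescence intensity above secondary-antibody-only background and normalized to control CHO-GPI cells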
[25] = target: T4, FZD4 cysteine-rich domain (CRD), …; assay: as above
[26] = target: T5, FZD5 cysteine-rich domain (CRD), …; assay: as above
[27] = target: T6, FZD6 cysteine-rich domain (CRD), …; assay: as above
[28] = target: T7, FZD7 cysteine-rich domain (CRD), …; assay: as above
[29] = target: T9, FZD9 cysteine-rich domain (CRD), …; assay: as above
[30] = target: T10, FZD10 cysteine-rich domain (CRD), …; assay: as above

T11 sequence (Q9UP38 73-250 limits assumed): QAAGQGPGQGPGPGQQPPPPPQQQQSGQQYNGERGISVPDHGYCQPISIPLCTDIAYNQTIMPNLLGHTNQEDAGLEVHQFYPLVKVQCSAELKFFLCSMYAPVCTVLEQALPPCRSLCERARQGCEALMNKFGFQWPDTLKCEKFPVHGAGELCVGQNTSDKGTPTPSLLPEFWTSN

median fluorescence [1]: 7.17 | median fluorescence [2]: 6.21 | median fluorescence [3]: 4.61 | median fluorescence [4]: 6.73 | median fluorescence [5]: 34.6 | median fluorescence [6]: 3.05 | median fluorescence [7]: 2.71 | median fluorescence [8]: 12.9 | median fluorescence [9]: 3.65 | median fluorescence [10]: 2.92 | binding result [11]: no binding | binding result [12]: no binding | binding result [13]: no binding | binding result [14]: no binding | binding result [15]: no binding | binding result [16]: no binding | binding result [17]: no binding | binding result [18]: no binding
B1: Fab-2926 (Fab, V domains shown)
VH: EVQLVESGGGLVQPGGSLRLSCAASGFNIYSSYMHWVRQAPGKGLEWVASIYPSSSSTSYADSVKGRFTISADTSKNTAYLQMNSLRAEDTAVYYCARGGLDYWGQGTLVTVSS
VL: DIQMTQSPSSLSASVGDRVTITCRASQSVSSAVAWYQQKPGKAPKLLIYSASSLYSGVPSRFSGSRSGTDFTLTISSLQPEDFATYYCQQWYHGGSLFTFGQGTKVEIK
notes: Fab; also called Fv-2926

Kd [19]: 1.24 nM | koff [19]: 0.000451 s⁻¹ | kon [19]: 364000 M⁻¹ s⁻¹ | Kd [20]: 0.905 nM | koff [20]: 0.000452 s⁻¹ | kon [20]: 500000 M⁻¹ s⁻¹ | Kd [21]: 0.00988 nM | koff [21]: 1.3e-05 s⁻¹ | kon [21]: 1.32e+06 M⁻¹ s⁻¹ | Kd [22]: 0.496 nM | koff [22]: 0.000382 s⁻¹ | kon [22]: 770000 M⁻¹ s⁻¹ | Kd [23]: 0.0455 nM | koff [23]: 4.75e-05 s⁻¹ | kon [23]: 1.04e+06 M⁻¹ s⁻¹
B2: IgG-2916 (antibody, V domains shown)
VH: EVQLVESGGGLVQPGGSLRLSCAASGFNISYSSIHWVRQAPGKGLEWVASIYPSYSYTYYADSVKGRFTISADTSKNTAYLQMNSLRAEDTAVYYCARYGYYGMDYWGQGTLVTVSS
VL: DIQMTQSPSSLSASVGDRVTITCRASQSVSSAVAWYQQKPGKAPKLLIYSASSLYSGVPSRFSGSRSGTDFTLTISSLQPEDFATYYCQQWYHYPYLITFGQGTKVEIK

median fluorescence [3]: 4.37 | median fluorescence [4]: 5.19 | median fluorescence [5]: 42.9 | median fluorescence [6]: 3.08 | median fluorescence [7]: 5.94 | median fluorescence [9]: 4.49 | median fluorescence [10]: 3.96 | binding result [24]: no binding (tested: 200 nM) | binding result [25]: no binding (tested: 200 nM) | fold-increase in mean fluorescence intensity over background (secondary antibody alone), normalized to control CHO-GPI [26]: 13 fold | binding result [27]: no binding (tested: 200 nM) | binding result [28]: no binding (tested: 200 nM) | binding result [29]: no binding (tested: 200 nM) | binding result [30]: no binding (tested: 200 nM)
B3: Fab-2928 (Fab, V domains shown)
VH: EVQLVESGGGLVQPGGSLRLSCAASGFNISYSSIHWVRQAPGKGLEWVASIYPSYSSTYYADSVKGRFTISADTSKNTAYLQMNSLRAEDTAVYYCARYYAMDYWGQGTLVTVSS
VL: DIQMTQSPSSLSASVGDRVTITCRASQSVSSAVAWYQQKPGKAPKLLIYSASSLYSGVPSRFSGSRSGTDFTLTISSLQPEDFATYYCQQAFYYPITFGQGTKVEIK
notes: Fab; also called Fv-2928
